Source: paper PMC6066478, “Structural visualization of RNA polymerase III transcription machineries” (Cell Discovery, 2018)
Each block holds one binder with its values, some of them ahead of it.

Key:
[1] = target: T1, RNA polymerase III (17 subunits, incl. C160, C82/C34/C31, C53);Brf1N-TBPc-Brf1C chimera;Bdp1 (Saccharomyces cerevisiae;Saccharomyces …, UniProt P04051;P22276;P32349;P25441;P07703;P36121;P32910;P17890;P35718;P20434;P20435;P28 …, |internal_change|); experiment: cryo-EM; complex on EC scaffold, RNA not seen; 4.5 Å; EMD-7533; PIC assembled at room temperature; assembly buffer not given in the material; details: protein: native;recombinant;recombinant; tags: TAP tag on C53 C terminus (TEV-cleaved, calmodulin eluted);C-terminal 6xHis;C-terminal 6xHis; copies: 1;1;1;1;1;1;1;1;1;1;1;1;1;1;1;1;1;1;1; label: biotin 5' on strand 3; mismatched bubble +12 to +22 with RNA (strand 4); strands 2 and 3 both anneal to strand 1 (2-nt gap between them)
[2] = target: T1, RNA polymerase III (17 subunits, incl. …); experiment: cryo-EM; ITC; 4.1 Å; EMD-7530; PIC assembled at room temperature; assembly buffer not given in the material; details: protein: native;recombinant;recombinant; tags: TAP tag on C53 C terminus (TEV-cleaved, calmodulin eluted);C-terminal 6xHis;C-terminal 6xHis; copies: 1;1;1;1;1;1;1;1;1;1;1;1;1;1;1;1;1;1;1; label: biotin 5' on strand 3; mismatched bubble with RNA (strand 4, RNA written as printed); strands 2 and 3 both anneal to strand 1 (nick between them)
[3] = target: T1, RNA polymerase III (17 subunits, incl. …); experiment: cryo-EM; OC; 4.1 Å; EMD-7531; PIC assembled at room temperature; assembly buffer not given in the material; details: protein: native;recombinant;recombinant; tags: TAP tag on C53 C terminus (TEV-cleaved, calmodulin eluted);C-terminal 6xHis;C-terminal 6xHis; copies: 1;1;1;1;1;1;1;1;1;1;1;1;1;1;1;1;1;1;1; label: biotin 5' on strand 3; 10-nt mismatched bubble; strands 2 and 3 both anneal to strand 1 (nick between them)
[4] = target: T1, RNA polymerase III (17 subunits, incl. …); experiment: cryo-EM; nOC, spontaneously melted; 4.8 Å; EMD-7532; PIC assembled at room temperature; assembly buffer not given in the material; details: protein: native;recombinant;recombinant; tags: TAP tag on C53 C terminus (TEV-cleaved, calmodulin eluted);C-terminal 6xHis;C-terminal 6xHis; copies: 1;1;1;1;1;1;1;1;1;1;1;1;1;1;1;1;1;1;1; label: biotin 5' on strand 3; strand 1 fully paired; strands 2 and 3 both anneal to strand 1 (nick between them)
[5] = target: RNA polymerase III (17 subunits, incl. C160, C82/C34/C31, C53);Brf1N-TBPc-Brf1C chimera;Bdp1 Δ355-372 (Saccharomyces cerevisiae;Saccharomyces …, UniProt P04051;P22276;P32349;P25441;P07703;P36121;P32910;P17890;P35718;P20434;P20435;P28 …, |internal_change|del355-372); experiment: cryo-EM; iOC, Brf1 ZR and C34 WH1 disordered; 8.5 Å; EMD-7534; PIC assembled at room temperature; assembly buffer not given in the material; details: protein: native;recombinant;recombinant; tags: TAP tag on C53 C terminus (TEV-cleaved, calmodulin eluted);C-terminal 6xHis;C-terminal 6xHis; copies: 1;1;1;1;1;1;1;1;1;1;1;1;1;1;1;1;1;1;1; label: biotin 5' on strand 3; strand 1 fully paired; strands 2 and 3 both anneal to strand 1 (nick between them)
Bdp1 (B double prime) = target: T2, Bdp1 (B double prime) (Saccharomyces cerevisiae, UniProt P46678 1-594); experiment: cryo-EM structure; Pol III OC, 4.1 Å (TFIIIB 4.7 Å with soft mask): same assembly on the OC scaffold with a 10-nt mismatched bubble; details: both partners purified
T2 construct: Bdp1, S. cerevisiae, PCR amplified from genomic DNA; Cloned in pET21b(+) at SalI and NotI; The methods cite the purification of B''(138-594) only as the procedure followed; also called subunit of TFIIIB
T2 sequence: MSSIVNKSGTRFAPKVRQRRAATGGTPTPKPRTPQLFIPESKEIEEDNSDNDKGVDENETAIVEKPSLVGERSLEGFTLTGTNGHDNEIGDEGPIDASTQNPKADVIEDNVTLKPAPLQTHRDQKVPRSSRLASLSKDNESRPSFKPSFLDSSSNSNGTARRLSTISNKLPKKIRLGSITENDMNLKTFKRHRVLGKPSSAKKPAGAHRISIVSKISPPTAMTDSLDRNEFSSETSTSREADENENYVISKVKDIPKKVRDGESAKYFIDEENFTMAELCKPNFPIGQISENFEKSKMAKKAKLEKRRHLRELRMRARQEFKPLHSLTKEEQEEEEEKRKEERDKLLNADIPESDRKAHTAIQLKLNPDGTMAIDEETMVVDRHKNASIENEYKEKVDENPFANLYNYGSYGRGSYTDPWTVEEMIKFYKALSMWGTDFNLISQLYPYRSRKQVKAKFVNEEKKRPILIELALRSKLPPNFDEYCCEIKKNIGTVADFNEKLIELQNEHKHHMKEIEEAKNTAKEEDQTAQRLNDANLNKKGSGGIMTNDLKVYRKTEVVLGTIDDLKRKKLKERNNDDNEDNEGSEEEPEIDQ

Bdp1 Δ355–372 = target: T3, Bdp1 Δ355–372 (Saccharomyces cerevisiae, UniProt P46678 1-594, Δ355–372); experiment: cryo-EM structure; Pol III iOC (intermediate OC), about 8.5 Å (TFIIIB lobe 15-25 Å): assembly with Bdp1 Δ355–372 on the closed DNA scaffold, assembly buffer plus 60 mM KCl; map only, no model deposited; details: both partners purified
T3 construct: Same construct as m3 apart from the deletion; source: E. coli BL21 (DE3) pRARE, purified as the wild-type protein
T3 sequence (looked up): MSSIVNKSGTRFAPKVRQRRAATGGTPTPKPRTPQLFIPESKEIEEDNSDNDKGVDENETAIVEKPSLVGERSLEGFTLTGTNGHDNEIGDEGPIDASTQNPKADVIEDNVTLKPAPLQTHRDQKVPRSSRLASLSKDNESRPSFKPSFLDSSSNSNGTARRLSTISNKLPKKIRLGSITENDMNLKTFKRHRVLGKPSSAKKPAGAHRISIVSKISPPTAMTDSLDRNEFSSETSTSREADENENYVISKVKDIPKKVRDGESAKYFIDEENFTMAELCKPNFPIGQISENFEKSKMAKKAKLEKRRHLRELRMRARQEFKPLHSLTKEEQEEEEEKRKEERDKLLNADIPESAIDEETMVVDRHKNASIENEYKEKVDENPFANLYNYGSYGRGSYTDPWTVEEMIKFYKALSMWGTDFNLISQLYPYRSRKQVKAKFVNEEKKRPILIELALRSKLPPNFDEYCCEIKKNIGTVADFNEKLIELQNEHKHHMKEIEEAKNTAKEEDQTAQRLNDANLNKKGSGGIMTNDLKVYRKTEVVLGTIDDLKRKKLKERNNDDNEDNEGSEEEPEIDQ

B1: EC scaffold with 20-mer RNA (mixed)
DNA 1: ACGCCTTAACCAACTTGGCCATGGAGTCATTTTATCTTGTGTCACTTTTACAGAAAAAGTATTACTAATATATGTTGAAAAACTGGGGAATTCCATGGTCCGTA
DNA 2: TTCAACATATATTAGTAATACTTTTTCTGTAAAAGTGACACAAGATAAAAATTTTTTTTGTCCAAGTTGGTTAAGGCGT
DNA 3: TACGGACCATGGAATTCCCCAGT
RNA: UUUUUUUUUUUAGACUCCAU
binding result [1]: binds

B2: ITC scaffold with 6-mer RNA (mixed)
DNA 1: CAACTTGGCCATGGAGTCATTTTATCTTGTGTCACTTTTACAGAAAAAGTATTACTAATATATGTTGAAAAACTGGGGAATTCCATGGTCCGTA
DNA 2: TTTTCAACATATATTAGTAATACTTTTTCTGTATTTTTTTTTTTTTTTTAAATGACTCCATGGCCAAGTTG
DNA 3: TACGGACCATGGAATTCCCCAGT
?: ACAAGA
binding result [2]: binds

B3: OC (open complex) scaffold (dsDNA)
DNA 1: CAACTTGGCCATGGAGTCATTTTATCTTGTGTCACTTTTACAGAAAAAGTATTACTAATATATGTTGAAAAACTGGGGAATTCCATGGTCCGTA
DNA 2: TTTTCAACATATATTAGTAATACTTTTTCTGTATTTTTTTTTTAAGATAAAATGACTCCATGGCCAAGTTG
DNA 3: TACGGACCATGGAATTCCCCAGT
binding result [3]: binds

B4: CC (closed complex) scaffold (dsDNA)
DNA 1: CAACTTGGCCATGGAGTCATTTTATCTTGTGTCACTTTTACAGAAAAAGTATTACTAATATATGTTGAAAAACTGGGGAATTCCATGGTCCGTA
DNA 2: TTTTCAACATATATTAGTAATACTTTTTCTGTAAAAGTGACACAAGATAAAATGACTCCATGGCCAAGTTG
DNA 3: TACGGACCATGGAATTCCCCAGT
binding result [4]: binds
binding result [5]: binds

binding result (Bdp1 (B double prime)): binds
binding result (Bdp1 Δ355–372): binds
B5: chimera protein Brf1N-TBPc-Brf1C (other, Saccharomyces cerevisiae)
chain: MPVCKNCHGTEFERDLSNANNDLVCKACGVVSEDNPIVSEVTFGETSAGAAVVQGSFIGAGQSHAAFGGSSALESREATLNNARRKLRAVSYALHIPEYITDAAFQWYKLALANNFVQGRRSQNVIASCLYVACRKEKTHHMLIDFSSRLQVSVYSIGATFLKMVKKLHITELPLADPSLFIQHFAEKLDLADKKIKVVKDAVKLAQRMSKDWMFEGRRPAGIAGACILLACRMNNLRRTHTEIVAVSHVAEETLQQRLNEFKNTKAAKLSVQKFRENDVEDGEARPPSFVKNRKKERKIKDSLDKEEMFQTSEEALNKNPILTQVLGEQELSSKEVLFYLKQFSERRARVVERIKATNGIDGENIYHEGSENETRKRKLSEAMPWSGIVPTLQNIVATVTLGCRLDLKTVALHARNAEYNPKRFAAVIMRIREPKTTALIFASGKMVVTGAKSEDDSKLASRKYARIIQKIGFAAKFTDFKIQNIVGSCDVKFPIRLEGLAFSHGTFSSYEPELFPGLIYRMVKPKIVLLIFVSGKIVLTGAKQREEIYQAFEAIYPVLSEFRKMGSGSGSGSGSGSPRNLHLLPTTDTYLSKVSDDPDNLEDVDDEELNAHLLNEEASKLKERIWIGLNADFLLEQESKRLKQEADIATGNTSVKKKRTRRRNNTRSDEPTKTVDAAAAIGLMSDLQDKSGLHAALKAAEESGDFTTADSVKNMLQKASFSKKINYDAIDGLFR
notes: Brf1 (TFIIB-related factor), S. cerevisiae, N-terminal part up to residue 382 (residues 383-438 of Brf1 were replaced by TBPc); linker between Brf1 residue 382 and TBP residue 61; linker between TBP residue 240 and Brf1 residue 439; Brf1, S. cerevisiae, C-terminal part from residue 439 to the end of full-length Brf1; Cloned in pET21b(+) at SalI and NotI; The printed offset (632-649 in the chimera …)

binding result (Bdp1 (B double prime)): binds
B6: TATA box-binding protein (TBP) core domain, the TBPc part of the chimera Brf1N-TBPc-Brf1C (domain or fragment, Saccharomyces cerevisiae, UniProt P13393 61-240, looked up)
chain: SGIVPTLQNIVATVTLGCRLDLKTVALHARNAEYNPKRFAAVIMRIREPKTTALIFASGKMVVTGAKSEDDSKLASRKYARIIQKIGFAAKFTDFKIQNIVGSCDVKFPIRLEGLAFSHGTFSSYEPELFPGLIYRMVKPKIVLLIFVSGKIVLTGAKQREEIYQAFEAIYPVLSEFRKM
notes: TBP, S. cerevisiae, core domain residues 61-240; In the assay TBPc stood inside the chain of the chimera m2, between Brf1 1-382 and Brf1 439-end; this molecule is made only for the rows of TBP with Brf1 and Bdp1; source: E. coli BL21 (DE3) pRARE, purified, as part of the chimera m2

binding result (Bdp1 (B double prime)): binds
B7: C34 subunit of Pol III (natural protein, Saccharomyces cerevisiae, UniProt P32910 1-317, looked up)
chain: MSGMIENGLQLSDNAKTLHSQMMSKGIGALFTQQELQKQMGIGSLTDLMSIVQELLDKNLIKLVKQNDELKFQGVLESEAQKKATMSAEEALVYSYIEASGREGIWSKTIKARTNLHQHVVLKCLKSLESQRYVKSVKSVKFPTRKIYMLYSLQPSVDITGGPWFTDGELDIEFINSLLTIVWRFISENTFPNGFKNFENGPKKNVFYAPNVKNYSTTQEILEFITAAQVANVELTPSNIRSLCEVLVYDDKLEKVTHDCYRVTLESILQMNQGEGEPEAGNKALEDEEEFSIFNYFKMFPASKHDKEVVYFDEWTI
notes: C34, subunit of the Pol III-specific heterotrimer C82/34/31, S. cerevisiae; WH1 residues 10-77, WH2 residues 78-158; Stood in the assay as a subunit of the whole Pol III; source: endogenous, purified from S. cerevisiae as a subunit of Pol III (TAP tag on C53)
